# Source: US20210196796A1 (SYNTHEKINE, published 2021)
# Residue numbers refer to the chain shown, from its start. Names may count otherwise.
# T1: orthogonal hCD122 receptor (hoRb), hCD122 with H133D and Y134F (human, UniProt P14784 27-550)
# T1 sequence: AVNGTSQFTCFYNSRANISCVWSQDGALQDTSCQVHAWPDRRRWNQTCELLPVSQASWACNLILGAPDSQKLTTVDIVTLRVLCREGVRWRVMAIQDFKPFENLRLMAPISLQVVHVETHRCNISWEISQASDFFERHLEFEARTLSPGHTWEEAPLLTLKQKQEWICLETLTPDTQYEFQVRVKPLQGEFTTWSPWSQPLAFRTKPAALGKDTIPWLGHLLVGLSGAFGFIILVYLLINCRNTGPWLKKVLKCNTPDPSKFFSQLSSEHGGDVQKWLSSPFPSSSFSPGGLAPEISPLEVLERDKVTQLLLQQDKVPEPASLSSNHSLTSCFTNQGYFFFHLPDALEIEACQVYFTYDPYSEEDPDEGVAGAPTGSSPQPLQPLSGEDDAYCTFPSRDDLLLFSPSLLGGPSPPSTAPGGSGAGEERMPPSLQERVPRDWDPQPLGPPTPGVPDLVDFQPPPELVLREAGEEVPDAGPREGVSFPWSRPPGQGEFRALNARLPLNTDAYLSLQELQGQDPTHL
# B1: Q126E, SQVLKA (ligand)
# chain: APTSSSTKKTQLQLSQLLVLLKAILNGINNYKNPKLTRMLTFKFYMPKKATELKHLQCLEEELKPLEEVLNLAQSKNFHLRPRDLISNINVIVLELKGSETTFMCEYADETATIVEFLNRWITFCESIISTLT
# B2: KQVLKA (ligand)
# chain: B1 chain with S15K, E126Q
# B3: Q126R, SQVLKA (ligand)
# chain: B1 chain with E126R
# B4: Q126T, SQVLKA (ligand)
# chain: B1 chain with E126T
# B5: TQVLKA (ligand)
# chain: B1 chain with S15T, E126Q
# B6: L18F, SQVLKA (ligand)
# chain: B1 chain with L18F, E126Q
# B7: Q126S, SQVLKA (ligand)
# chain: B1 chain with E126S
# B8: L18M, SQVLKA (ligand)
# chain: B1 chain with L18M, E126Q
# B9: L18E, SQVLKA (ligand)
# chain: B1 chain with L18E, E126Q
# B10: SNVLKA (ligand)
# chain: B1 chain with Q16N, E126Q
# B11: Q126I, SQVLKA (ligand)
# chain: B1 chain with E126I
# B12: Q126G, SQVLKA (ligand)
# chain: B1 chain with E126G
# B13: L18G, SQVLKA (ligand)
# chain: B1 chain with L18G, E126Q
# B14: ΔH16, S_VLKA (ligand)
# chain: APTSSSTKKTQLQLSLLVLLKAILNGINNYKNPKLTRMLTFKFYMPKKATELKHLQCLEEELKPLEEVLNLAQSKNFHLRPRDLISNINVIVLELKGSETTFMCEYADETATIVEFLNRWITFCQSIISTLT
# Target: T1, orthogonal hCD122 receptor (hoRb), …
# Assay: cell-based or functional assay
# Wherever Relative Proliferation Fold Change 3F8 1:10 is given: reference of the scale not given here.
# Wherever Relative Proliferation Fold Change 3F8 1:2 is given: reference of the scale not given here.
# Wherever Relative Proliferation Fold Change 3F8 1:50 is given: reference of the scale not given here.
# Wherever Relative Proliferation Fold Change NKL 1:10 is given: reference of the scale not given here.
# Wherever Relative Proliferation Fold Change NKL 1:2 is given: reference of the scale not given here.
# Wherever Relative Proliferation Fold Change NKL 1:50 is given: reference of the scale not given here.
NKL Ortho Proliferation Signal 1:2,NKL Ortho Proliferation Signal 1:10,NKL Ortho Proliferation Signal 1:50,Relative Proliferation Fold Change NKL 1:2,Relative Proliferation Fold Change NKL 1:10,Relative Proliferation Fold Change NKL 1:50,Binder
10600,8600,6800,1.01 fold,0.68 fold,0.55 fold,B1
71200,67600,38900,5.12 fold,4.36 fold,2.63 fold,B2
13900,9670,6650,1.18 fold,0.75 fold,0.57 fold,B3
5980,6750,5180,0.44 fold,0.47 fold,0.41 fold,B4
50400,57900,27800,3.46 fold,3.31 fold,1.75 fold,B5
48600,39400,19400,3.85 fold,2.52 fold,1.3 fold,B6
9460,7880,6310,0.71 fold,0.57 fold,0.5 fold,B7
42700,43900,22100,3.7 fold,2.72 fold,1.55 fold,B8
8260,9060,8120,0.57 fold,0.56 fold,0.51 fold,B9
46800,39700,18300,2.94 fold,2.19 fold,1.09 fold,B10
40000,35600,16700,3.78 fold,2.5 fold,1.25 fold,B11
5740,7220,6050,0.45 fold,0.49 fold,0.45 fold,B12
15400,13400,8640,1.05 fold,0.83 fold,0.57 fold,B13
20900,14200,9760,1.32 fold,0.84 fold,0.62 fold,B14

# Target: T1, orthogonal hCD122 receptor (hoRb), …
# Assay: cell-based or functional assay
# Remark: another data set of the same source
3F8 Ortho Proliferation Signal 1:2,3F8 Ortho Proliferation Signal 1:10,3F8 Ortho Proliferation Signal 1:50,Relative Proliferation Fold Change 3F8 1:2,Relative Proliferation Fold Change 3F8 1:10,Relative Proliferation Fold Change 3F8 1:50,Binder
21000 cts/min,14600 cts/min,2660 cts/min,129 fold,33.6 fold,6.4 fold,B1
35200 cts/min,36800 cts/min,24000 cts/min,4.86 fold,3.88 fold,23 fold,B2
22400 cts/min,18100 cts/min,3710 cts/min,0.49 fold,1.44 fold,1.37 fold,B3
3380 cts/min,1880 cts/min,1320 cts/min,0.28 fold,0.54 fold,1.92 fold,B4
29100 cts/min,35900 cts/min,17000 cts/min,2.6 fold,16 fold,8.69 fold,B5
49800 cts/min,40800 cts/min,30000 cts/min,54.8 fold,16.8 fold,11.8 fold,B6
9540 cts/min,2870 cts/min,826 cts/min,19.3 fold,3.69 fold,1.6 fold,B7
42000 cts/min,48500 cts/min,37200 cts/min,55 fold,21.9 fold,16.6 fold,B8
6090 cts/min,2350 cts/min,1980 cts/min,9.99 fold,0.93 fold,0.77 fold,B9
31400 cts/min,32700 cts/min,19000 cts/min,9.2 fold,11.8 fold,4.79 fold,B10
27400 cts/min,27000 cts/min,9510 cts/min,30 fold,11.3 fold,8.69 fold,B11
1540 cts/min,1100 cts/min,838 cts/min,7.05 fold,2.14 fold,1.14 fold,B12
37700 cts/min,25900 cts/min,9750 cts/min,52.9 fold,17 fold,3.79 fold,B13
2360 cts/min,4420 cts/min,1670 cts/min,3.49 fold,1.68 fold,1.33 fold,B14
